Results reported in patent US20230050148A1 (SCHOLAR ROCK, published 2023).
Changes are numbered by the printed parent chain.

T1: Cyno (cynomolgus monkey)
T1 chain: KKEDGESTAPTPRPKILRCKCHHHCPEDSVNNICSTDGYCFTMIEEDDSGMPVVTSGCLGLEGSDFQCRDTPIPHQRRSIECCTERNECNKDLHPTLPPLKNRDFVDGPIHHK

B1: Ab4 (antibody, V domains shown)
VH: EVQLVESGGGLVQPGGSLRLSCAASGFTFSSYSMNWVRQAPGKGLEWVSYISSSSSTIYYADSVKGRFTISRDNAKNSLYLQMNSLRAEDTAVYYCARGVLDYGDMLDPWGQGTLVTVSS
VL: DIQMTQSPSSLSASVGDRVTITCQASQDITNYLNWYQQKPGKAPKLLIYDASNLETGVPSRFSGSGSGTDFTFTISSLQPEDIATYYCQQADNHPPWTFGGGTKVEIK
B2: Ab6 (antibody, V domains shown)
VH: B1 VH with A23T, Y32F, N35D, S53P, S55A, S56D, S78T, D108M
VL: DIQMTQSPSSLSASVGDRVTITCQASQDITNYLNWYQQKPGKAPKLLIYDASNLETGVPSRFSGSGSGTDFTFTISSLQPEDIATYYCQQADNHPPWTFGGGTKVEIKR
B3: Ab5 (antibody, V domains shown)
VH: B1 VH with Y32F, N35D, S53P, S54D, S55A
VL: B1 VL
B4: Ab23 (antibody, V domains shown)
VH: B1 VH with Y32F, S53P, S55A, S56D, S78T
VL: B1 VL
B5: Ab33 (antibody, V domains shown)
VH: B1 VH with Y32F, S53P, S55A, S56D, S78T, R98H
VL: B1 VL
B6: Ab25 (antibody, V domains shown)
VH: B1 VH with S30G, Y32F, N35D, S53P, S54D, S55A
VL: B1 VL
B7: Ab26 (antibody, V domains shown)
VH: B1 VH with Y32F, N35D, S53P, S54D, S55A, S78T
VL: B1 VL
B8: Ab6 Fab (Fab, V domains shown)
VH: B1 VH with A23T, Y32F, N35D, S53P, S55A, S56D, S78T, D108M
VL: B1 VL
notes: also called Fab fragment of Ab6
B9: Ab21 (antibody, V domains shown)
VH: B1 VH with Y32F, N35D, S53P, S54D, S55A
VL: B1 VL
B10: Ab29 (antibody, V domains shown)
VH: B1 VH with G16R, Y32F, S33A, S53P, S54D, S55A, D62G, A97V, G99A
VL: B1 VL

How the values were obtained:
[1] = molecular target: hLTBP1-proTGFβ1 in the cell-based potency assay (human, UniProt P01137 30-390; Q14766 347-1721); assay: cell-based or functional assay
Sequence of hLTBP1-proTGFβ1 in the cell-based potency assay (P01137 30-390 limits assumed, chain 1 of 2): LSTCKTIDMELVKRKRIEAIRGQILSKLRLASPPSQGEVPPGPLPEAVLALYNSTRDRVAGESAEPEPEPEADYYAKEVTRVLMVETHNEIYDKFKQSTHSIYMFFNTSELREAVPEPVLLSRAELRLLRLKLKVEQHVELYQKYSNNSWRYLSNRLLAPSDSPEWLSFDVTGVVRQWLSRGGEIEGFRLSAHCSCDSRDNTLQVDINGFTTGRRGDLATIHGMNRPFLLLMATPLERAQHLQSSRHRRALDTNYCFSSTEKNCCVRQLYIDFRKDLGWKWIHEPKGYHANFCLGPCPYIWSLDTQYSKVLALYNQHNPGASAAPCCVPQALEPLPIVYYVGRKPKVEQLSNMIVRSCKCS
Sequence of hLTBP1-proTGFβ1 in the cell-based potency assay (Q14766 347-1721 limits assumed, chain 2 of 2): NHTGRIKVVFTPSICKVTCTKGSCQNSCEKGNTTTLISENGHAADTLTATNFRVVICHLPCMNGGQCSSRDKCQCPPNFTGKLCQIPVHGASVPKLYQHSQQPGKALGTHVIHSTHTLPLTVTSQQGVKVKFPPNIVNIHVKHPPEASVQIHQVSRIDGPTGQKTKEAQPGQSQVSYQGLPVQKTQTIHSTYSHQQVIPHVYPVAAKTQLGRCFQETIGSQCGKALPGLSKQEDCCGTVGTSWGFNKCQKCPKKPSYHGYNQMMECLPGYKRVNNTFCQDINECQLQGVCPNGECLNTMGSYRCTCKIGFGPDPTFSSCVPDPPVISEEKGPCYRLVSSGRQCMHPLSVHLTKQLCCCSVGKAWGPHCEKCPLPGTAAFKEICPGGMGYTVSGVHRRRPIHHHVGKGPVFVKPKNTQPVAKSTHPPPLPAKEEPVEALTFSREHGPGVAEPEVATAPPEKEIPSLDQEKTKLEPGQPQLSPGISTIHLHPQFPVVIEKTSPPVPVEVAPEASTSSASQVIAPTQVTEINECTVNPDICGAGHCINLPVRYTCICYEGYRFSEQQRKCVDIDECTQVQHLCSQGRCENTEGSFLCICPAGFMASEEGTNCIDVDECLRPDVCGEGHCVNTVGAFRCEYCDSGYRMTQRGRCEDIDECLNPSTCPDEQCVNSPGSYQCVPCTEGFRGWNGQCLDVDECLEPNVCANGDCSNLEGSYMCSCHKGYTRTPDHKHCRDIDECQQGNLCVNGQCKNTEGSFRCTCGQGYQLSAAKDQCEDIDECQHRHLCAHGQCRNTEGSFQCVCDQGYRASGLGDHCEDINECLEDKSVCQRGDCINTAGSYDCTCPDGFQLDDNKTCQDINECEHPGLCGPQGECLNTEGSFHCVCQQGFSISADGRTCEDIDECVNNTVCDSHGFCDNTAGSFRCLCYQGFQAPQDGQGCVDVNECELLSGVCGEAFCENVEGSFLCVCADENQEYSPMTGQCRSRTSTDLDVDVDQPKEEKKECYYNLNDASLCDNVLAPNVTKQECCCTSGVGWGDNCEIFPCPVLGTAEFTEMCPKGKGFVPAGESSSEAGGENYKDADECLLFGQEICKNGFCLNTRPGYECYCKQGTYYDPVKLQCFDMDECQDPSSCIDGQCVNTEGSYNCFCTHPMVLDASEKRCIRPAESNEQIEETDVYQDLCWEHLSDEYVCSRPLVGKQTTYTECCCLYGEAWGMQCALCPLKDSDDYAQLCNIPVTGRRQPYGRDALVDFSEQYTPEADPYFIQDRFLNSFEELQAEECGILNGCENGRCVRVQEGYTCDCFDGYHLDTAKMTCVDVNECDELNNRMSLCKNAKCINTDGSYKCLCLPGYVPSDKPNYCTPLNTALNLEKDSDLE

[2] = molecular target: hGARP-proTGFβ1 in the cell-based potency assay (human, UniProt P01137 30-390; Q14392 20-662); assay: cell-based or functional assay
[3] = molecular target: hLTBP3-proTGFβ1 in the cell-based potency assay (human, UniProt P01137 30-390; Q9NS15 44-1303); assay: cell-based or functional assay
Rat = Rat (rat); assay: cell-based or functional assay
Human = Human (human); assay: cell-based or functional assay
Cyno = molecular target: T1, Cyno; assay: cell-based or functional assay
LTBP:proTGFβ1 = LTBP:proTGFβ1 (human); assay: cell-based or functional assay
[4] = molecular target: hLRRC33-proTGFβ1 in the cell-based potency assay (human, UniProt P01137 30-390; Q86YC3 19-651); assay: cell-based or functional assay
Sequence of hLRRC33-proTGFβ1 in the cell-based potency assay (P01137 30-390 limits assumed, chain 1 of 2): as the sequence (P01137 30-390 limits assumed, chain 1 of 2) above
Sequence of hLRRC33-proTGFβ1 in the cell-based potency assay (Q86YC3 other isoform, or with tags, fused parts or gaps limits assumed, chain 2 of 2): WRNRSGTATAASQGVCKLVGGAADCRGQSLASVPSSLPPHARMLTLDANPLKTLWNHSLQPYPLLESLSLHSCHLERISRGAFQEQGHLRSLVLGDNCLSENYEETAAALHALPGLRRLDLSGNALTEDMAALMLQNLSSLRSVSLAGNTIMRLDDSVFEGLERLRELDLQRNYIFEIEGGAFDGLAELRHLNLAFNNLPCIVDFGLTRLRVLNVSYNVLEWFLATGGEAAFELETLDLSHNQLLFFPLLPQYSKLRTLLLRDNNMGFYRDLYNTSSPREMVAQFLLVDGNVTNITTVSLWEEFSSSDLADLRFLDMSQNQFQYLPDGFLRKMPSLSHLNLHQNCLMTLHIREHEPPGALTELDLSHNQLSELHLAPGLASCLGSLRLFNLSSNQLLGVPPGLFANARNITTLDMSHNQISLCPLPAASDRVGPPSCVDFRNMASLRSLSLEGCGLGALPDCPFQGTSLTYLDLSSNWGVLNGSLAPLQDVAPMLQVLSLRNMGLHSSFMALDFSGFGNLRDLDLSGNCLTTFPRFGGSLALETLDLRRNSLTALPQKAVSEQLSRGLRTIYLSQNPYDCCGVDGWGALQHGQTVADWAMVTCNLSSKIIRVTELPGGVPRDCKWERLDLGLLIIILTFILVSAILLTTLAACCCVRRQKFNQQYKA

[5] = molecular target: T2, recombinant human LRRC33-proTGFβ1 complex (human, UniProt P01137 30-390; Q86YC3 19-650); assay: SPR (Biacore 8K), biotinylated antigen on Biotin CAP chip, Fab 0.62-10 nM, 1:1 fit
T2 construct: C-terminally His-tagged LRRC33 ectodomain (sLRRC33); also called hLRRC33-proTGFβ1; hLRRC33
T2 sequence (P01137 30-390 limits assumed, chain 1 of 2): as the sequence (P01137 30-390 limits assumed, chain 1 of 2) above
T2 sequence (Q86YC3 other isoform, or with tags, fused parts or gaps limits assumed, chain 2 of 2): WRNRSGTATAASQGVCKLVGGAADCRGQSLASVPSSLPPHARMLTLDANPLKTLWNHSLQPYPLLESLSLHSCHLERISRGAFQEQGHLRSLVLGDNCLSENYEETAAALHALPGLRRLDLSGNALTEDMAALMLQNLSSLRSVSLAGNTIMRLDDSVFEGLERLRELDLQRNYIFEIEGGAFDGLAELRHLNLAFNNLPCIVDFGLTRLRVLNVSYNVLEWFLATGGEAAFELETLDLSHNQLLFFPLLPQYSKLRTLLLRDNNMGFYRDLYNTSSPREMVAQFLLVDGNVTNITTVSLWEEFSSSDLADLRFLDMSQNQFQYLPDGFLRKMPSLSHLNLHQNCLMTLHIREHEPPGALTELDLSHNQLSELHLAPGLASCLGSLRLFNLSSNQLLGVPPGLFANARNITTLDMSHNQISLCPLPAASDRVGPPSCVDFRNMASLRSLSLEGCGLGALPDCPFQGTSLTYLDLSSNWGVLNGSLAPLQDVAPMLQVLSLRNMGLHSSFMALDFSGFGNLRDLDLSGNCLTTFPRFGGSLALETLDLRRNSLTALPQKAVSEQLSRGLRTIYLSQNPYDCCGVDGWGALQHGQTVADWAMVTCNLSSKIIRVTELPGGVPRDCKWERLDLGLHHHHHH

[6] = molecular target: T3, recombinant human GARP-proTGFβ1 complex (human, UniProt P01137 30-390; Q14392 20-627); assay: as above
T3 construct: C-terminally His-tagged GARP ectodomain (sGARP) in complex with latent TGFβ1; also called hGARP-proTGFβ1; hGARP
T3 sequence (P01137 30-390, chain 1 of 2): as the sequence (P01137 30-390 limits assumed, chain 1 of 2) above
T3 sequence (Q14392 20-627, chain 2 of 2): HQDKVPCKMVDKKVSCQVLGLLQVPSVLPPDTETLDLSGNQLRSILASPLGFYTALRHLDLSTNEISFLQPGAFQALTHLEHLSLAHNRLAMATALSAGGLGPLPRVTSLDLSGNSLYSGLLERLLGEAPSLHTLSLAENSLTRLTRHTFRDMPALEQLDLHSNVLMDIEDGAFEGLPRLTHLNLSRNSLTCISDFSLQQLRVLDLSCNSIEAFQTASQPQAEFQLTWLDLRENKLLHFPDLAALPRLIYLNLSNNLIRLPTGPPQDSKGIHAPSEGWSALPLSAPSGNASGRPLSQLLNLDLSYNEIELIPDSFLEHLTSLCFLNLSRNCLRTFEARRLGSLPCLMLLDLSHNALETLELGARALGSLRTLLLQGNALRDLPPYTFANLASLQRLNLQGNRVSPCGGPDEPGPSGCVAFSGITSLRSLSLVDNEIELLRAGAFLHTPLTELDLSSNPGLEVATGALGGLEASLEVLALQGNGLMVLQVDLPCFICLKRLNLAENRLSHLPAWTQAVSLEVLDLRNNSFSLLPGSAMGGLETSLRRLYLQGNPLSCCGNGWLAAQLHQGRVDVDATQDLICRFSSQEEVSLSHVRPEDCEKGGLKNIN

[7] = molecular target: T4, recombinant human LTBP1-proTGFβ1 complex (human, UniProt Q14766 873-1507); assay: as above
T4 construct: range 873-1507; Purified large latent complex (proTGFβ1 dimer disulfide-linked to one presenting molecule); biotinylated in BLI, MSD-SET and SPR assays; also called hLTBP1-proTGFβ1; hLTBP1

[8] = molecular target: T5, recombinant human LTBP3-proTGFβ1 complex (human, UniProt Q9NS15 866-1039); assay: as above
T5 construct: range 866-1039; Purified large latent complex; also called hLTBP3-proTGFβ1; hLTBP3

Binder	IC50, reporter cell assay of TGFβ1 activation [1]	IC50, reporter cell assay of TGFβ1 activation [2]	IC50, reporter cell assay of TGFβ1 activation [3]	IC50, reporter cell assay of TGFβ1 activation [4]	other results
B1	5.2 nM	0.8 nM	5.6 nM		
B2					IC50 (inhibition of latent TGFβ1 activation, LN229 transfectants with CAGA12 reporter cells) (Rat): 1.11 nM; IC50 (inhibition of latent TGFβ1 activation, LN229 transfectants with CAGA12 reporter cells) (Human): 1.07 nM; IC50 (inhibition of latent TGFβ1 activation, LN229 transfectants with CAGA12 reporter cells) (Cyno): 1.02 nM; IC50 (read off the curve); percent TGFβ activity, LN229 / CAGA12 luciferase reporter co-culture (LTBP:proTGFβ1): ~1 nM
B3	1.3 nM	0.1 nM		0.6 nM	
B4	0.8 nM	0.3 nM	0.9 nM	0.6 nM	
B5	1.6 nM	0.2 nM	1.1 nM	0.7 nM	
B6	6.1 nM	0.4 nM	0.51 nM	0.7 nM	
B7	0.7 nM	0.3 nM	0.7 nM	0.3 nM	
B8					Kd [5]: 0.145 nM; koff [5]: 0.000123 s⁻¹; kon [5]: 845000 M⁻¹ s⁻¹; Kd [6]: 0.104 nM; koff [6]: 0.000218 s⁻¹; kon [6]: 2.1e+06 M⁻¹ s⁻¹; Kd [7]: 0.124 nM; koff [7]: 0.000255 s⁻¹; kon [7]: 2.05e+06 M⁻¹ s⁻¹; Kd [8]: 0.488 nM; koff [8]: 0.000831 s⁻¹; kon [8]: 1.7e+06 M⁻¹ s⁻¹
B9	1.6 nM	0.4 nM	0.8 nM	0.6 nM	
B10	0.5 nM	0.3 nM	0.8 nM	0.5 nM	
